From PMC5409451

Tests used:
[1] = molecular target: EV71 2C 116–329 (enterovirus 71) (UniProt Q66478); assay: SEC
[2] = molecular target: EV71 2C 116–329 E325A (enterovirus 71); assay: SEC

| Substance | stoichiometry N [1] | stoichiometry N [2] |
| --- | --- | --- |
| EV71 2C 116–329 (from UniProt Q66478 117-330) (domain or fragment) | 4 |  |
| EV71 2C 116–329 E325A (domain or fragment) |  | 2 |
